Test results taken from paper PMC3795721, “Screening for Protein-DNA Interactions by Automatable DNA-Protein Interaction ELISA”.

Target: WRKY33 cDBD (Arabidopsis thaliana, UniProt Q8S8P5 345-449)
Assay: DPI-ELISA; DPI-ELISA, streptavidin 384-well plate, 1-2 pmol biotinylated dsDNA per well, crude native E. coli extract, anti-His detection; buffer as in Brand et al. [46],; high values mean tight binding
Settings: tags: C-terminal His (pET-DEST42); label: 5' biotin on forward strand

Chain of WRKY33 cDBD (Q8S8P5 other isoform, or with tags, fused parts or gaps): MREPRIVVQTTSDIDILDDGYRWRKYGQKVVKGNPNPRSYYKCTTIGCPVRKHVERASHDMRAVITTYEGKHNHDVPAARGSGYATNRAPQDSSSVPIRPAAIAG

B1: 101 (dsDNA)
DNA 1: AAAAAAGTCTAAGGACTTATAGCTGTAAAA
DNA 2: TTTTACAGCTATAAGTCCTTAGACTTTTTT
binding signal: 2.37 relative normalized absorbance

B2: 92 (dsDNA)
DNA 1: AAAAAAAGTCTGCGGCTGCAGGGCGGAAAA
DNA 2: TTTTCCGCCCTGCAGCCGCAGACTTTTTTT
binding signal: 2.36 relative normalized absorbance

B3: 54 (dsDNA)
DNA 1: AAAAAAGTCCGCCCTTAATTCATATTAAAA
DNA 2: TTTTAATATGAATTAAGGGCGGACTTTTTT
binding signal: 2.35 relative normalized absorbance

B4: 222 (dsDNA)
DNA 1: AAAAAAGGCGGTCGTAGTTGTGGGAGAAAA
DNA 2: TTTTCTCCCACAACTACGACCGCCTTTTTT
binding signal: 2.35 relative normalized absorbance

B5: 195 (dsDNA)
DNA 1: AAAAAATGGTCGTCGTACTCGTGGTCAAAA
DNA 2: TTTTGACCACGAGTACGACGACCATTTTTT
binding signal: 2.34 relative normalized absorbance

B6: 83 (dsDNA)
DNA 1: AAAAAATATGTAGCTGCCGTTACGCTAAAA
DNA 2: TTTTAGCGTAACGGCAGCTACATATTTTTT
binding signal: 2.34 relative normalized absorbance

B7: 260 (dsDNA)
DNA 1: AAAAAAGTATAACGTGTTGTTGACCGAAAA
DNA 2: TTTTCGGTCAACAACACGTTATACTTTTTT
binding signal: 2.33 relative normalized absorbance

B8: 271 (dsDNA)
DNA 1: AAAAAACGTTGAACCTGGGCCTCAACAAAA
DNA 2: TTTTGTTGAGGCCCAGGTTCAACGTTTTTT
binding signal: 2.33 relative normalized absorbance

B9: 173 (dsDNA)
DNA 1: AAAAAATACATTTGACTTTGGGTTTCAAAA
DNA 2: TTTTGAAACCCAAAGTCAAATGTATTTTTT
binding signal: 2.31 relative normalized absorbance

B10: 137 (dsDNA)
DNA 1: AAAAAAACTCTAGGTCAATATTATTCAAAA
DNA 2: TTTTGAATAATATTGACCTAGAGTTTTTTT
binding signal: 2.3 relative normalized absorbance

B11: 97 (dsDNA)
DNA 1: AAAAAAAGTTTGACCTTGGCGTTCGTAAAA
DNA 2: TTTTACGAACGCCAAGGTCAAACTTTTTTT
binding signal: 2.28 relative normalized absorbance

B12: 91 (dsDNA)
DNA 1: AAAAAAAGTGGCCGCTAGTCAACTCAAAAA
DNA 2: TTTTTGAGTTGACTAGCGGCCACTTTTTTT
binding signal: 2.25 relative normalized absorbance

B13: 43 (dsDNA)
DNA 1: AAAAAAAGGTCATTGCTGCTGGTGTTAAAA
DNA 2: TTTTAACACCAGCAGCAATGACCTTTTTTT
binding signal: 2.19 relative normalized absorbance

B14: 36 (dsDNA)
DNA 1: AAAAAATTTGGTCTTCGTCCTCGCTTAAAA
DNA 2: TTTTAAGCGAGGACGAAGACCAAATTTTTT
binding signal: 2.17 relative normalized absorbance

B15: 88 (dsDNA)
DNA 1: AAAAAATCAACCATTATGGTATTACTAAAA
DNA 2: TTTTAGTAATACCATAATGGTTGATTTTTT
binding signal: 2.02 relative normalized absorbance

B16: 57 (dsDNA)
DNA 1: AAAAAAAATTAGTCTCTTCGTCTCCCAAAA
DNA 2: TTTTGGGAGACGAAGAGACTAATTTTTTTT
binding signal: 2.01 relative normalized absorbance

B17: 117 (dsDNA)
DNA 1: AAAAAAATCAGCCTGACTCTGGGCGTAAAA
DNA 2: TTTTACGCCCAGAGTCAGGCTGATTTTTTT
binding signal: 2.01 relative normalized absorbance
